Assay results published in US20250019439A1 (Adimab, published 2025).

How the values were obtained:
ADI-22523 Fab = biological target: T1, ADI-22523 Fab; test: BLI; tip anti-ID IgG, solution ADI-22523 Fab
T1 construct: anti-CD3 Fab by papain digestion of the IgG
Method in brief: (§1)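 Bio-layer interferometry with anti-ID IgG loaded on AHC tips. KD (koff/kon) from 1:1 binding model fit; avid format.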

ADI-22523 IgG = biological target: T2, ADI-22523 IgG; test: BLI; tip anti-ID IgG, solution ADI-22523 IgG
T2 construct: anti-CD3 IgG
Method in brief: as §1

ADI-48576 = biological target: T3, ADI-48576; test: SPR Carterra, yeast anti-ID
T3 construct: pH-dependent anti-CD3 antibody made in CHO cells
Method in brief: (§2)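 Surface plasmon resonance on a Carterra LSA at 25° C, HBSTE buffer. The anti-CD3 antibody is Fc-captured (100 nM, 5 min) and the anti-idiotype antibody serves as analyte; dissociation lasts 300s and the surface is regenerated with 10 mM glycine pH 1.7.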

ADI-74965 = biological target: T4, ADI-74965; test: SPR Carterra, yeast anti-ID
T4 construct: pH-dependent anti-CD3 antibody made in CHO cells
Method in brief: as §2

ADI-48650 = biological target: T5, ADI-48650; test: SPR Carterra, yeast anti-ID
T5 construct: pH-dependent anti-CD3 antibody made in CHO cells
Method in brief: as §2

ADI-26915 = biological target: T6, ADI-26915; test: SPR Carterra, yeast anti-ID
T6 construct: anti-CD3 antibody made in CHO cells, captured by anti-human Fc
Method in brief: as §2

ADI-26912 = biological target: T7, ADI-26912; test: SPR Carterra, yeast anti-ID
T7 construct: anti-CD3 antibody made in CHO cells, captured by anti-human Fc
Method in brief: as §2

CTL-62240 = biological target: T8, CTL-62240; test: SPR Carterra, yeast anti-ID
T8 construct: also called ONO-4685
Method in brief: as §2

ADI-48592 = biological target: T9, ADI-48592; test: SPR Carterra, yeast anti-ID
T9 construct: pH-dependent anti-CD3 antibody made in CHO cells
Method in brief: as §2

CTL-62228 = biological target: T10, CTL-62228; test: SPR Carterra, yeast anti-ID
T10 construct: also called glofitamab
Method in brief: as §2

CTL-62227 = biological target: T11, CTL-62227; test: SPR Carterra, yeast anti-ID
T11 construct: also called odronextamab
Method in brief: as §2

ADI-26924 = biological target: T12, ADI-26924; test: SPR Carterra avidity, yeast anti-ID, *koff limit
T12 construct: anti-CD3 antibody made in CHO cells, captured by anti-human Fc
Method in brief: as §2

ADI-67447 = biological target: T13, ADI-67447; test: SPR Carterra avidity, yeast anti-ID, *koff limit
T13 construct: anti-CD3 antibody made in CHO cells, captured by anti-human Fc
Method in brief: as §2

ADI-26909 = biological target: T14, ADI-26909; test: SPR Carterra avidity, yeast anti-ID, *koff limit
T14 construct: anti-CD3 antibody made in CHO cells, captured by anti-human Fc
Method in brief: as §2

ADI-26943 = biological target: T15, ADI-26943; test: SPR Carterra avidity, yeast anti-ID, *koff limit
T15 construct: anti-CD3 antibody made in CHO cells, captured by anti-human Fc
Method in brief: as §2

ADI-67445 = biological target: T16, ADI-67445; test: SPR Carterra avidity, yeast anti-ID, *koff limit
T16 construct: anti-CD3 antibody made in CHO cells, captured by anti-human Fc
Method in brief: as §2

ADI-76361 = biological target: T17, ADI-76361; test: SPR Carterra avidity, yeast anti-ID, *koff limit
T17 construct: anti-CD3 antibody made in CHO cells, captured by anti-human Fc
Method in brief: as §2

ADI-76359 = biological target: T18, ADI-76359; test: SPR Carterra avidity, yeast anti-ID, *koff limit
T18 construct: anti-CD3 antibody made in CHO cells, captured by anti-human Fc
Method in brief: as §2

ADI-26920 IgG = biological target: T19, ADI-26920 IgG; test: SPR Carterra avidity, yeast anti-ID, *koff limit
T19 construct: anti-CD3 IgG
Method in brief: as §2

ADI-76362 = biological target: T20, ADI-76362; test: SPR Carterra avidity, yeast anti-ID, *koff limit
T20 construct: anti-CD3 antibody made in CHO cells, captured by anti-human Fc
Method in brief: as §2

ADI-26921 IgG = biological target: T21, ADI-26921 IgG; test: SPR Carterra avidity, yeast anti-ID, *koff limit
T21 construct: anti-CD3 IgG
Method in brief: as §2

ADI-70326 = biological target: T22, ADI-70326; test: SPR Carterra avidity, yeast anti-ID
T22 construct: anti-CD3 antibody made in CHO cells, captured by anti-human Fc
Method in brief: as §2

ADI-26916 IgG = biological target: T23, ADI-26916 IgG; test: SPR Carterra avidity, yeast anti-ID
T23 construct: anti-CD3 IgG
Method in brief: as §2

ADI-48587 = biological target: T24, ADI-48587; test: SPR Carterra avidity, yeast anti-ID
T24 construct: pH-dependent anti-CD3 antibody made in CHO cells
Method in brief: as §2

ADI-50024 = biological target: T25, ADI-50024; test: SPR Carterra avidity, yeast anti-ID
T25 construct: anti-CD3 antibody made in CHO cells, captured by anti-human Fc
Method in brief: as §2

ADI-70330 = biological target: T26, ADI-70330; test: SPR Carterra avidity, yeast anti-ID
T26 construct: anti-CD3 antibody made in CHO cells, captured by anti-human Fc
Method in brief: as §2

ADI-67450 = biological target: T27, ADI-67450; test: SPR Carterra avidity, yeast anti-ID
T27 construct: anti-CD3 antibody made in CHO cells, captured by anti-human Fc
Method in brief: as §2

ADI-76358 = biological target: T28, ADI-76358; test: SPR Carterra avidity, yeast anti-ID
T28 construct: anti-CD3 antibody made in CHO cells, captured by anti-human Fc
Method in brief: as §2

ADI-76357 = biological target: T29, ADI-76357; test: SPR Carterra avidity, yeast anti-ID
T29 construct: anti-CD3 antibody made in CHO cells, captured by anti-human Fc
Method in brief: as §2

ADI-76360 = biological target: T30, ADI-76360; test: SPR Carterra avidity, yeast anti-ID
T30 construct: anti-CD3 antibody made in CHO cells, captured by anti-human Fc
Method in brief: as §2

ADI-26913 IgG = biological target: T31, ADI-26913 IgG; test: SPR Carterra avidity, yeast anti-ID
T31 construct: anti-CD3 IgG
Method in brief: as §2

ADI-74966 = biological target: T32, ADI-74966; test: SPR Carterra avidity, yeast anti-ID
T32 construct: pH-dependent anti-CD3 antibody made in CHO cells
Method in brief: as §2

ADI-70327 = biological target: T33, ADI-70327; test: SPR Carterra avidity, yeast anti-ID
T33 construct: anti-CD3 antibody made in CHO cells, captured by anti-human Fc
Method in brief: as §2

ADI-74967 = biological target: T34, ADI-74967; test: SPR Carterra avidity, yeast anti-ID
T34 construct: pH-dependent anti-CD3 antibody made in CHO cells
Method in brief: as §2

CTL-62223 = biological target: T35, CTL-62223; test: SPR Carterra avidity, yeast anti-ID
T35 construct: also called mosunetuzumab
Method in brief: as §2

ADI-26906 IgG = biological target: T36, ADI-26906 IgG; test: SPR Carterra avidity, yeast anti-ID
T36 construct: anti-CD3 IgG
Method in brief: as §2

ADI-26919 = biological target: T37, ADI-26919; test: SPR Carterra avidity, yeast anti-ID
T37 construct: anti-CD3 antibody made in CHO cells, captured by anti-human Fc
Method in brief: as §2

ADI-74968 = biological target: T38, ADI-74968; test: SPR Carterra avidity, yeast anti-ID
T38 construct: pH-dependent anti-CD3 antibody made in CHO cells
Method in brief: as §2

T23 sequence (VH, as listed by the source, chain 1 of 2): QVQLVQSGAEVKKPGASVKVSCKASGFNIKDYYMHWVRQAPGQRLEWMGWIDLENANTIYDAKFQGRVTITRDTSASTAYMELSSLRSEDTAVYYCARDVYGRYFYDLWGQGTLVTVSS
T23 sequence (VL, as listed by the source, chain 2 of 2): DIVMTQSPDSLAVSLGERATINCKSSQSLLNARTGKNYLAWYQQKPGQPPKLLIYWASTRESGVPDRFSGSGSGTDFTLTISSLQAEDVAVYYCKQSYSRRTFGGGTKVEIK
T21 sequence (VH, as listed by the source limits assumed, chain 1 of 2): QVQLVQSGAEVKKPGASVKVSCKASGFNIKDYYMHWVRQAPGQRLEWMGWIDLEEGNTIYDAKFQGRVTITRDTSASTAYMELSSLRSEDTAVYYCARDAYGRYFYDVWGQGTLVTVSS
T21 sequence (VL, as listed by the source limits assumed, chain 2 of 2): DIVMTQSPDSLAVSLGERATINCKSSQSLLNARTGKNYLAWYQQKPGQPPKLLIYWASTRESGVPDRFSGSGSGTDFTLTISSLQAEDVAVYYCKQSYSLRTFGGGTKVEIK
T13 sequence (VH, as listed by the source limits assumed, chain 1 of 2): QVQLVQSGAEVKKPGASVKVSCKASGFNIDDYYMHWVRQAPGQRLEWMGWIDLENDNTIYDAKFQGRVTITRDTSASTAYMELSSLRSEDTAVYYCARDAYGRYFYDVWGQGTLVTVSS
T29 sequence (VH, as listed by the source, chain 1 of 2): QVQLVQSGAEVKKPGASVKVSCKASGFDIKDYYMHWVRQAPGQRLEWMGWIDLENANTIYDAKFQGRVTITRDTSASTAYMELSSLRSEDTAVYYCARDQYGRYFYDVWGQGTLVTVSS
T25 sequence (VH, as listed by the source limits assumed, chain 1 of 2): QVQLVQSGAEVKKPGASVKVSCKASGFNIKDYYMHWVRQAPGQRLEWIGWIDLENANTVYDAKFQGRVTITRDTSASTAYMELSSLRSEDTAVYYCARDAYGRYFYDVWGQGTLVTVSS
T25 sequence (VL, as listed by the source limits assumed, chain 2 of 2): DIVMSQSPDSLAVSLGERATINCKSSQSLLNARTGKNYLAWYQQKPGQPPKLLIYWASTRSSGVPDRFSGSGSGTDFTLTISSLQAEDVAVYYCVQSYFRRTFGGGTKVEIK
T12 sequence (VH, as listed by the source, chain 1 of 2): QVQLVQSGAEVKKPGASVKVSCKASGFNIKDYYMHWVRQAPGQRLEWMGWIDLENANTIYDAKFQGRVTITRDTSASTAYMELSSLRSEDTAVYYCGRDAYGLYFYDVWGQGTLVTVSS
T22 sequence (VH, as listed by the source limits assumed, chain 1 of 2): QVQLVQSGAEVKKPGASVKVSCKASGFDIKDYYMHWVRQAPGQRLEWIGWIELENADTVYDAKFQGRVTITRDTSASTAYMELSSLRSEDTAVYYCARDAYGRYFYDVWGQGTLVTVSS
T9 sequence (VH, as listed by the source, chain 1 of 2): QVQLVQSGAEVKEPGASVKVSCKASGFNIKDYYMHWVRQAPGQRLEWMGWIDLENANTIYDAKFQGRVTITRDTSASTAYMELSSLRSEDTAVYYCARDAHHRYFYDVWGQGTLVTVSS
T9 sequence (VL, as listed by the source, chain 2 of 2): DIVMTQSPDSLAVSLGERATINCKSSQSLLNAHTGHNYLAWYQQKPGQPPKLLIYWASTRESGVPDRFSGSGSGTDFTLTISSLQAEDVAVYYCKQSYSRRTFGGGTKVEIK
T18 sequence (VH, as listed by the source, chain 1 of 2): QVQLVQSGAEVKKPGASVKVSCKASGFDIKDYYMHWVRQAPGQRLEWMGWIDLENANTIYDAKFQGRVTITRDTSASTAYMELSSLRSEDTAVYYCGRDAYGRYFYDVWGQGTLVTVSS
T5 sequence (VH, as listed by the source, chain 1 of 2): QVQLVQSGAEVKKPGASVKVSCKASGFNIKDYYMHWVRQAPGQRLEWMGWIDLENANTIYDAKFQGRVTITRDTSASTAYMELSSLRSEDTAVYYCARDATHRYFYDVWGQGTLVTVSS
T5 sequence (VL, as listed by the source, chain 2 of 2): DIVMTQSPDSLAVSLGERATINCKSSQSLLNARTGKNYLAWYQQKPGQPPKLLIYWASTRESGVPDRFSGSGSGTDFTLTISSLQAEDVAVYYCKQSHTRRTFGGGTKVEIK
T33 sequence (VH, as listed by the source limits assumed, chain 1 of 2): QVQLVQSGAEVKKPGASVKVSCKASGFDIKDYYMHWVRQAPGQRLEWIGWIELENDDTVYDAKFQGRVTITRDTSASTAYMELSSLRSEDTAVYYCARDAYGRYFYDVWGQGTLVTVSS
T7 sequence (VH, as listed by the source, chain 1 of 2): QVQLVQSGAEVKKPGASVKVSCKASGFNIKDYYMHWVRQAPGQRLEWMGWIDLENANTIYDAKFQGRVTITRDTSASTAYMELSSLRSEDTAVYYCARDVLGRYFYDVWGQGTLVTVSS
T38 sequence (VH, as listed by the source, chain 1 of 2): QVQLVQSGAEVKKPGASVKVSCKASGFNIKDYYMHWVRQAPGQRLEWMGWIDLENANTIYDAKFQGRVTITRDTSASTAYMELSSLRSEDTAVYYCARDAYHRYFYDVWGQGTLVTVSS
T38 sequence (VL, as listed by the source, chain 2 of 2): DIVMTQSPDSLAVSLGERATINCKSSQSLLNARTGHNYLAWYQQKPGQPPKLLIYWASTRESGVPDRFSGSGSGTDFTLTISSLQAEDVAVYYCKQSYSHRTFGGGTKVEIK
T4 sequence (VL, as listed by the source, chain 2 of 2): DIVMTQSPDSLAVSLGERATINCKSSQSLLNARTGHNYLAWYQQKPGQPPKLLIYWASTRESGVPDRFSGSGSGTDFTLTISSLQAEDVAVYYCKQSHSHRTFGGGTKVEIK
T11 sequence (VH, as listed by the source, chain 1 of 2): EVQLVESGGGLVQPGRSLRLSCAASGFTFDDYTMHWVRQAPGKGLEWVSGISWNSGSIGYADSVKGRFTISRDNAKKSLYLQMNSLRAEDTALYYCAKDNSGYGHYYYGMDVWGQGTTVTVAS
T11 sequence (VL, as listed by the source, chain 2 of 2): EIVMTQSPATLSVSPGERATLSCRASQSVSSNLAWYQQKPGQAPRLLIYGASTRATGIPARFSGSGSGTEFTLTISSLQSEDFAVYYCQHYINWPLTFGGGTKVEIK
T14 sequence (VH, as listed by the source limits assumed, chain 1 of 2): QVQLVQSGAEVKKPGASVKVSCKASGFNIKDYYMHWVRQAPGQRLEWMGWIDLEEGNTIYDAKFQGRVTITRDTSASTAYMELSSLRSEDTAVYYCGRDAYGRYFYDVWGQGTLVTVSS
T31 sequence (VH, as listed by the source limits assumed, chain 1 of 2): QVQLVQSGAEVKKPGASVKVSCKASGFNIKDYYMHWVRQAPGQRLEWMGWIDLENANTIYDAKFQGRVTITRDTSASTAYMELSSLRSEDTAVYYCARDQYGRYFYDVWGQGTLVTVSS
T3 sequence (VH, as listed by the source, chain 1 of 2): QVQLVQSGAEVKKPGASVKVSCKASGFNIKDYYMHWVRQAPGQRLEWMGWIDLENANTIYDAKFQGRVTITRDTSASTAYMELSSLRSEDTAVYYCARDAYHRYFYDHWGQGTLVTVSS
T3 sequence (VL, as listed by the source, chain 2 of 2): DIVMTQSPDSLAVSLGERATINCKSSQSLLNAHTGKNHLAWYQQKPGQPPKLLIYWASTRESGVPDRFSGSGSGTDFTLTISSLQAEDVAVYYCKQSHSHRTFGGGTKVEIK

B1: ADI-34131 (antibody, V domains shown)
VH: QVQLVQSGAEVKKPGSSVKVSCKASGGTFSSYAISWVRQAPGQGLEWMGGIIPIFGTANYAQKFQGRVTITADESTSTAYMELSSLRSEDTAVYYCARGAPNYYGSGGYDDGWFDPWGQGTLVTVSS
VL: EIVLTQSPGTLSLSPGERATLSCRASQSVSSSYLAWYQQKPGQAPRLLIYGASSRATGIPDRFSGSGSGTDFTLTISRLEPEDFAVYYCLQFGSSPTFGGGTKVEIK
notes: anti-ID IgG
With B1 the Kd (ADI-22523 Fab) was 13.5 nM, the Kd (ADI-22523 IgG) was 0.73 nM and the binding result (ADI-48576) was “no binding (tested: up to 200 nM)”. B1: no binding (tested: up to 200 nM) (ADI-74965); no binding (tested: up to 200 nM) (ADI-48650); no binding (tested: up to 200 nM) (ADI-26915). B1: no binding (tested: up to 200 nM) (ADI-26912); no binding (tested: up to 200 nM) (CTL-62240); no binding (tested: up to 200 nM) (ADI-48592). For the same binder, the binding result (CTL-62228) was “no binding (tested: up to 200 nM)”, the binding result (CTL-62227) was “no binding (tested: up to 200 nM)” and the Kd (ADI-26924) was 17 nM. It also gave a Kd (ADI-67447) of 13 nM, a Kd (ADI-26909) of 13 nM and a Kd (ADI-26943) of 22 nM. For the same binder, the Kd (ADI-67445) was 25 nM, the Kd (ADI-76361) was 19 nM and the Kd (ADI-76359) was 8.7 nM. The Kd (ADI-26920 IgG) was 11 nM, the Kd (ADI-76362) was 16 nM and the Kd (ADI-26921 IgG) was 18 nM. The Kd (ADI-70326) was 130 nM, the Kd (ADI-26916 IgG) was 84 nM and the binding result (ADI-48587) was “binds”. For the same binder, the Kd (ADI-50024) was 18 nM, the Kd (ADI-70330) was 80 nM and the Kd (ADI-67450) was 69 nM. It also gave a Kd (ADI-76358) of 91 nM, a Kd (ADI-76357) of 35 nM and a Kd (ADI-76360) of 43 nM. For the same binder, the Kd (ADI-26913 IgG) was 20 nM, the Kd (ADI-74966) was 31 nM and the Kd (ADI-70327) was 130 nM. It also gave a Kd (ADI-74967) of 22 nM, a Kd (CTL-62223) of 54 nM and a Kd (ADI-26906 IgG) of 27 nM. For the same binder, the Kd (ADI-26919) was 25 nM and the binding result (ADI-74968) was “binds”.
